# Reference: the supplement of paper PMC9170038
# System: MS2 coat protein
# Experiment: apparent KD of MS2 coat protein; designed switch direction (-1 OFF switch, 1 ON switch): -1; higher = weaker reporter binding
# Procedure, shortened: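 Designed RNA switches with common flanks were transcribed on Illumina chips by stalled E. coli RNA polymerase and titrated with SNAP-549-labelled MS2 coat protein, from 0.7 or 1.5 nM doubling to 3 µM, in Tris-HCl pH 7.5 buffer with KCl, MgCl2, BSA, DTT, tRNA and Tween-20. Steps lasted 0.8–1.5 h (lowest) to 10–20 min (highest). Titrations ran without input, with 200 uM small-molecule ligand, or with an oligonucleotide input. Normalised cluster fluorescence was curve-fitted, and apparent KD is the per-design median over clusters.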
# [1] = Eterna round: R95, input ligand: microRNA oligo, concentration not stated
# [2] = input ligand: microRNA oligo, concentration not stated
# [3] = Eterna round: R95, input ligand: FMN 200 uM
# [4] = Eterna round: R95, input ligand: none
Sequence,apparent KD of MS2 coat protein [1],apparent KD of MS2 coat protein (input ligand: FMN 200 uM),apparent KD of MS2 coat protein (input ligand: none),also measured
UAAUUAAGUGUGAGGAUAUGCUGGUCCUUGGAUCAGCAGAAGGCACAUGAGGAUCACCCAUGUAAAUUAUUUAU [Mat - Exclusion 4 - JL Mod - D60] (puzzle: Brourd's mod of Exclusion 4),73.2 nM,,,
AUAUCAAGCAAGGAUAUGCAAAUGGUUAUUUAUGCAGAAGGUGCAACAUGAGGAUCACCCAUGUUUCUGGGUUU [JR_E6_Sub049] (puzzle: Exclusion 6),48.2 nM,,,
"GAACCAUGAGGAUAUUCUGAUCCUUACAUGAGGAUCACCCAUGUGAGUACAAAAGUACUCGAAGAAGGCAUGGUUC [Omei Ex5 B1] (Eterna round: R97, puzzle: Exclusion 5)",,616 nM,2130 nM,
"CUGAGUUAAGGAUAUACAUGAGGAUCACCCAUGUAAAGUAGCUUGCGUACAGGCAGAUGUAGAAGGUAAUUCGG [Mod of JL 8 - Jieux - Exclusion 3] (Eterna round: R97, puzzle: Exclusion 3)",,37.2 nM,,
"UGAUCUAGCGGAGGAUAUACAUGAGGAUCACCCAUGUAUAGGCCAUGUGGUGACACGUGGAACAUGUAGAAGGCCGCUAGAUCU [JL ENG2 3.82] (Eterna round: R96, puzzle: Exclusion NG 2)",,287 nM,77.6 nM,apparent KD of MS2 coat protein [2]: 73.3 nM
UAUUUACGAGGAUAUCGUUUUUUUCACAUGAGGAUCACCCAUGUUGUUUAUGUUGCGUUGCGAGAAGGCGUUUGUU [JR_E5_Sub062] (puzzle: Exclusion 5),26.6 nM,,,
"UUCGUUUUAGGAUAUACAGGGUUGGUCGACAACUCACUGUCACAUGAGGAUCACCCAUGUAGAAGGGAGAGAAG [Eternabot (L1) Solution 49] (Eterna round: R97, puzzle: Exclusion 2)",,244 nM,198 nM,
"GAUACACAUGAGGAUCACCCAUGUGAGGAUAUGGAGGAGUUGCGAGUAAGCGAUGGAUCCAGAAGGCGCGUGAG [JR_Ex1_Sub082] (Eterna round: R97, puzzle: Exclusion 1)",,73.2 nM,64.2 nM,
CGGUGCUGAGGAUAUACAUGAGGAUCACCCAUGUGUUCCUGCUAGCGUACUGGCAGAUGUAGAAGGCGGUACUG [JL-ex3-3.44 Brourd mod] (puzzle: Exclusion 3),20.8 nM,,,apparent KD of MS2 coat protein [3]: 84 nM; apparent KD of MS2 coat protein [4]: 26.7 nM
"UACAUGAGGAUCACCCAUGUUUUGUCGUGUAUGGUAUUUAUCUAGGAUAUCAAUUGAUUUAAUUAUGAGAAGGAGAAUAUUAAU [JMF's solution 61] (Eterna round: R96, puzzle: Exclusion NG 3)",,,,apparent KD of MS2 coat protein [2]: 29.3 nM
"CCGGAAAGGAAGGAUAUGCUUGACGAAAGUCAAGCAGAAGGUCCUACAUGAGGAUCACCCAUGUGGCCUCCCGG [Mat - Exclusion 6 - Eli Mod - D48] (Eterna round: R97, puzzle: Exclusion 6)",,737 nM,128 nM,
ACUUAUAGAGGAUAUACAGUUUAUUACAUGAGGAUCACCCAUGUUCUUCAAUGUAUAUAAGUAGAAGGCUAAGGAA [EX-5 Malc#5] (puzzle: Exclusion 5),25.2 nM,,,apparent KD of MS2 coat protein [3]: 132 nM; apparent KD of MS2 coat protein [4]: 30 nM
"ACUUAUAGAGGAUAUACAGUUUAUUACAUGAGGAUCACCCAUGUUCUUCAAUGUAUAUAAGUAGAAGGCUAAGGAA [EX-5 Malc#5] (Eterna round: R96, puzzle: Exclusion 5)",,,,apparent KD of MS2 coat protein [2]: 33.7 nM
"UUAAAUCAUGUAGGAUAUGCUUUGCAAAGCGAGGCAGAAGGACAUGAGGAUCACCCAUGUGCUAGCGUCCGAGAACGGAUGCAA [Mat - Exclusion NG 1 - Mod of JL - D64] (Eterna round: R96, puzzle: Exclusion NG 1)",,503 nM,46.6 nM,apparent KD of MS2 coat protein [2]: 41.6 nM
UCGCUGCGAGGAUAUACAUGAGGAUCACCCAUGUACGGGUCCGGGUUUGAGUUGAUGAGUAGAAGGCGCAGUGA [JL Laongeedie mod 13] (puzzle: Exclusion 3),79.2 nM,,,
"CUUUUGUGAGGAUAUCAGUAGUAAAUAAAUAAUAUUACUACUGAGAAGGCACAUGAGGAUCACCCAUGUUCCUC [salish99_ex3_r3_083] (Eterna round: R96, puzzle: Exclusion 4)",,385 nM,45.3 nM,apparent KD of MS2 coat protein [2]: 39 nM
"AAAAUGUAAGGAUAUCGUUCACUUGACAAAAGUCAAGUGAACGAGAAGGUACAUGAGGAUCACCCAUGUAUGGG [-29.9, -29 kcal, A 38%] (Eterna round: R97, puzzle: Exclusion 4)",,131 nM,1340 nM,
"AAAGAAGAGAGAAAAUAACACAUGAGGAUCACCCAUGUGAGAUGUUGAGGGUGAUACAGGCUUUUUGCUCGUCUUAU (puzzle: Sensor v3, turn-off variant 1)",283 nM,,,apparent KD of MS2 coat protein [3]: 231 nM; apparent KD of MS2 coat protein [4]: 321 nM
UUUUAACAUGAGGAUCACCCAUGUGAGGAUAUCGAAAUUUAUAUUAAUAUUUAUAUUACGAGAAGGCACAUUUU [JMF 58] (puzzle: Exclusion 1),75.9 nM,,,
